One block for each binder: values may come before it. Where no end group is shown, it is not given here.
B1: secreted phospholipase A2 type IIA (sPLA2-IIA), wild type, recombinant (enzyme)
chain: NLVNFHRMIKLTTGKEAALSYGFYGCHCGVGGRGSPKDATDRCCVTHDCCYKRLEKRGCGTKFLSYKFSNSGSRITCAKQDSCRSQLCECDKAAATCFARNKTTYNKKYQYYSNKHCRGSTPRC
modifications: FITC-labeled in the flow cytometry binding assays of FIG. 7a-b ; FITC-labelled in the flow cytometry binding assays (FIG. 7a-b).
notes: PDB 1DCY was used for it in the docking simulation; also called WT sPLA2-IIA; sPLA-IIA

Assays:
[1] = biological target: T1, integrin α5β1 on K562 cells and U937 cells (UniProt P08648 42-1049; P05556 21-798, limits assumed); assay: flow cytometry, FITC-sPLA2-IIA (10 µg/ml) on K562 cells
T1 construct: whole, on cells
Protocol: Bound FITC was measured using flow cytometry. Data are shown as means±SEM of MFI of three independent experiments. c. […] Data are shown as means±SEM of % adhesion of three independent experiments. d-f. […] Data are shown as means±SEM of MFI of three independent experiments. […] Data are shown as means±SEM of MFI of three independent experiments, j-l. […] Data are shown as means±SEM of MFI of three independent experiments.

control GST = biological target: T2, control GST (UniProt P08515 1-218 = GST); assay: ELISA-type: GST-tagged protein on immobilized sPLA2-IIA, anti-GST-HRP
T2 construct: Control protein
Protocol: Remaining protein binding sites were blocked by incubating with PBS/0.1% BSA for 30 min at room temperature. After washing with PBS, S2 peptides were added to the wells and incubated in PBS for 2 h at room temperature.

[2] = biological target: B1; assay: ELISA-type: GST-tagged peptide on immobilized sPLA2-IIA, anti-GST-HRP
[3] = biological target: T1, integrin α5β1 on K562 cells and U937 …; assay: flow cytometry, FITC-FN8-11 on U937 and K562 cells, with sPLA2-IIA
Protocol: Bound FITC was measured using flow cytometry.
(§1) The cells were washed with PBS/0.02% BSA and analyzed by FACSCalibur (Becton Dickinson, Mountain View, Calif.).

[4] = biological target: T3, integrin αvβ3 on the cell surface of U937 cells and of K562 cells that express human integrin αvβ3 (human, UniProt P06756 31-1048; P05106 27-788); assay: flow cytometry, FITC-γC399tr on U937 and αvβ3-K562 cells with sPLA2-IIA (20 µg/ml) and Cmpd21
T3 construct: whole, on cells; Two cell types carry the same human integrin; also called αvβ3 on U937; αvβ3-K562
Description: as §1

[5] = biological target: T4, recombinant soluble integrin αvβ3 (UniProt P06756 31-992; P05106 27-718, limits assumed); assay: ELISA-type: soluble αvβ3 (5 µg/ml) on immobilized γC399tr, 1 mM Ca2+, with sPLA2-IIA; bound αvβ3 detected with anti-β3 mAb AV-10
T4 construct: also called soluble αvβ3
Protocol: Remaining protein binding sites were blocked by incubating with PBS/0.1% BSA for 30 min at room temperature.

[6] = biological target: T3, integrin αvβ3 on the cell surface of …; assay: flow cytometry, FITC-labeled ADAM15 on U937 and αvβ3-K562 cells, with sPLA2-IIA (20 µg/ml)
Description: Data are shown as means (MFI)±SEM of three independent experiments.
as §1

T3 sequence (P06756 31-1048, chain 1 of 2): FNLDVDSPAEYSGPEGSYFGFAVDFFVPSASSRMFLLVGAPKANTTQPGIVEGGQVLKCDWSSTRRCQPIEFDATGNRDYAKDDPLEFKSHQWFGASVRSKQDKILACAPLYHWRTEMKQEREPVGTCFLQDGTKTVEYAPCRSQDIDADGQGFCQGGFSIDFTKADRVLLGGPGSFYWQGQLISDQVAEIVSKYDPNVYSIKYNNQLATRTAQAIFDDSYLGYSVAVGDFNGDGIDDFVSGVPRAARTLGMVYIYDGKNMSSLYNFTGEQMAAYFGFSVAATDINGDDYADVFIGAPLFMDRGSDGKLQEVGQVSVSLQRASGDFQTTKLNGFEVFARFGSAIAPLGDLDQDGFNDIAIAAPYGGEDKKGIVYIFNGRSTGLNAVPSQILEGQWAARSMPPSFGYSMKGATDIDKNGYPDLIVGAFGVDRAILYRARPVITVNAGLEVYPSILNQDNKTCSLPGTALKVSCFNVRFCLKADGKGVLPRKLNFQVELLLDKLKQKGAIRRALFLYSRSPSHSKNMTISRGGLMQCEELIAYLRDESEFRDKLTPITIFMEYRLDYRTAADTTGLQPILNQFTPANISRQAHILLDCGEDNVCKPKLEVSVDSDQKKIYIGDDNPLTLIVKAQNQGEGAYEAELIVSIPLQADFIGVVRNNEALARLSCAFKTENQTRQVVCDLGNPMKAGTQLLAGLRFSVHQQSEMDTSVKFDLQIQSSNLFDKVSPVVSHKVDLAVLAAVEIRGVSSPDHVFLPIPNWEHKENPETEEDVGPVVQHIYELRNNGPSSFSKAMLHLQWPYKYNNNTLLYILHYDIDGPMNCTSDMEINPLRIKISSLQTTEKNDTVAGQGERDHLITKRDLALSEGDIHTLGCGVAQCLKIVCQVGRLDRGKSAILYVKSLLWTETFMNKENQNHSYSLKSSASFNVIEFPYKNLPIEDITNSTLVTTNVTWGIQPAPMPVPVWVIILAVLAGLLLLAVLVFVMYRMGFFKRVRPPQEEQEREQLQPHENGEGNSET
T3 sequence (P05106 27-788, chain 2 of 2): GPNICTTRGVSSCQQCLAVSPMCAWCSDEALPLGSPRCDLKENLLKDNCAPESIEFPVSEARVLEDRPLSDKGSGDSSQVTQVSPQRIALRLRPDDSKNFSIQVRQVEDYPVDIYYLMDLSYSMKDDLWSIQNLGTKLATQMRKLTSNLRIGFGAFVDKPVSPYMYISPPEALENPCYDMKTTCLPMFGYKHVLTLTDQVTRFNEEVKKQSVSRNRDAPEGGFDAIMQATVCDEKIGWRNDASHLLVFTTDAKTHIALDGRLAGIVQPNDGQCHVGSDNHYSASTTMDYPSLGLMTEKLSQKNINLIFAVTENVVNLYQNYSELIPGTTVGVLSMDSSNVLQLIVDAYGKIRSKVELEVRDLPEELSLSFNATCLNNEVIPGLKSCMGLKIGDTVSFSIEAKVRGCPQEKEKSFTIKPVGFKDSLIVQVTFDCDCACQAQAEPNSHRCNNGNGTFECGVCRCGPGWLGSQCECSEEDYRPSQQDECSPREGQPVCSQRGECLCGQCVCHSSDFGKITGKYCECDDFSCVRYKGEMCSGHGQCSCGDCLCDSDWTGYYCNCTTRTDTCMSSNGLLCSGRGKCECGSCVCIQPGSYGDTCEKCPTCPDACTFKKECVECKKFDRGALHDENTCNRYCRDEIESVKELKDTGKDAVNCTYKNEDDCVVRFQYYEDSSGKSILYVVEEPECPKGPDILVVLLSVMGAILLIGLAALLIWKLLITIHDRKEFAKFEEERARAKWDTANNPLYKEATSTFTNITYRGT
T1 sequence (P08648 42-1049 limits assumed, chain 1 of 2): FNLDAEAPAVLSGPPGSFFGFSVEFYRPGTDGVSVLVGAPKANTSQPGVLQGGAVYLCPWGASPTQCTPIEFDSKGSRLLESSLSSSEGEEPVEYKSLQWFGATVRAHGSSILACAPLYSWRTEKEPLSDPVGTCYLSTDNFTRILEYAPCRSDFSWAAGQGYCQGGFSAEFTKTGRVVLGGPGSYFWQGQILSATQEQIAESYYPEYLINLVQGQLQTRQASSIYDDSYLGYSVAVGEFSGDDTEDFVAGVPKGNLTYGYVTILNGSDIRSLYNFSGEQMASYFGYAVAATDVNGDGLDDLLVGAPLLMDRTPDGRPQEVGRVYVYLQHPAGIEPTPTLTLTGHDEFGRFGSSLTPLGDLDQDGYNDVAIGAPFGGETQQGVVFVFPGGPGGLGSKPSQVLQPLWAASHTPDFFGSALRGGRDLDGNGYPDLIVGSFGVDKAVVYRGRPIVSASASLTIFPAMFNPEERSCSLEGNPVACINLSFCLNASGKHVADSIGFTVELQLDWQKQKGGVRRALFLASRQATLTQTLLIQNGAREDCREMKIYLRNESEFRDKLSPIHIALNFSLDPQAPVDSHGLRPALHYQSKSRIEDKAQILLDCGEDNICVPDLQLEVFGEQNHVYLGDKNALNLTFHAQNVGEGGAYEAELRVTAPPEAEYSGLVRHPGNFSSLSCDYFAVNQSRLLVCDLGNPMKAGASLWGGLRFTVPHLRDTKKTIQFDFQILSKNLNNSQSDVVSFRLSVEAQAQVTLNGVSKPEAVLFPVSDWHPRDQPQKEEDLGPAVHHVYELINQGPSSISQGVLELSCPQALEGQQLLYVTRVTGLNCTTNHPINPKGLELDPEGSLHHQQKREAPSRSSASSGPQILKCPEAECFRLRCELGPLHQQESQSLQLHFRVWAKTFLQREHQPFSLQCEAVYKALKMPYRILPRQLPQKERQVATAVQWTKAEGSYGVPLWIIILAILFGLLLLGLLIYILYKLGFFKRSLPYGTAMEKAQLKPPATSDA
T1 sequence (P05556 21-798 limits assumed, chain 2 of 2): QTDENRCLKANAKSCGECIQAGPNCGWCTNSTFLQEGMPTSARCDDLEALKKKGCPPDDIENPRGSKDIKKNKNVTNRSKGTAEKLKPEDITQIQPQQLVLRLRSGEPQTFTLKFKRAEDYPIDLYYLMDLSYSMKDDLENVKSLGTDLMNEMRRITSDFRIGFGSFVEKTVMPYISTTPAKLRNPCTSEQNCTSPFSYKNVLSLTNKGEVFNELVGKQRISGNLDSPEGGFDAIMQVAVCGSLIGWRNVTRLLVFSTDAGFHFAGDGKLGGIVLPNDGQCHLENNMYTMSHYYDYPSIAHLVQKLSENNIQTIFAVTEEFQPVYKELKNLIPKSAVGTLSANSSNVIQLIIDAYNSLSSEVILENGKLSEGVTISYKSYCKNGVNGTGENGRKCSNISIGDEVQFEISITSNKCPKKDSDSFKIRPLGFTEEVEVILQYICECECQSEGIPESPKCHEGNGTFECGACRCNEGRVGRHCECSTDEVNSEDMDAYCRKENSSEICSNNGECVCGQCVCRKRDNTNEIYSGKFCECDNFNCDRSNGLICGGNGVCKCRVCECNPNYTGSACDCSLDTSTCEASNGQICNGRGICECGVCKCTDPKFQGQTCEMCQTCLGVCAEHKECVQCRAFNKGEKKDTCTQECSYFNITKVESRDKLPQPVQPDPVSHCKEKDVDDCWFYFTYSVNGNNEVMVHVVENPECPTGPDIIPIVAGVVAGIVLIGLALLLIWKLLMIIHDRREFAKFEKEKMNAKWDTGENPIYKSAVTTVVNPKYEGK
T2 sequence (P08515 whole entry): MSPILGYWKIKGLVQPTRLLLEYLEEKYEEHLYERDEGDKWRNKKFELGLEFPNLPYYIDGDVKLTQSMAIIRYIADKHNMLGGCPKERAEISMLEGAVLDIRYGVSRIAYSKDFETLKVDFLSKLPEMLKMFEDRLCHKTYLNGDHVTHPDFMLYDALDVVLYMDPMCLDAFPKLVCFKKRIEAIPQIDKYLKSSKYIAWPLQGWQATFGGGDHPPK

Binder: B1
binding result [1]: binds
binding result (control GST): no binding

B2: scrambled site 2 peptide of β3 (S2-β3scr), GST fusion (peptide)
chain: HHHHHHVHDSHYSGQGAMSDNTNSPQT
modifications: also: GST fusion protein, GST not in chain
notes: Control peptide; also called scrambled S2-β3 peptide; scrambled β3 peptide; not shown: glutathione S-transferase (GST) from vector pGEX-2T
binding result [2]: no binding

B4: Fibrinogen γ-chain C-terminal domain that lacks residues 400-411 (γC399tr) (ligand, UniProt P02679 177-425, looked up)
chain: KDCQDIANKGAKQSGLYFIKPLKANQQFLVYCEIDGSGNGWTVFQKRLDGSVDFKKNWIQYKEGFGHLSPTGTTEFWLGNEKIHLISTQSAIPYALRVELEDWNGRTSTADYAMFKVGPEADKYRLTYAYFAGGDAGDAFDGFDFGDDPSDKFFTSHNGMQFSTWDNDNDKFEGNCAEQDGSGWWMNKCHAGHLNGVYYQGGTYSKASTPNGYDNGIIWATWKTRWYSMKKTTMKIIPFNRLTIGEGQQ
modifications: FITC-labeled in the flow cytometry assays
notes: domain: Fibrinogen γ-chain C-terminal domain that lacks residues 400-411
binding result [4]: binds
binding result [5]: binds

Other lines, results leading:

binding result [3]: binds
B3: rat fibronectin type III domains 8-11 (FN8-11), GST fusion protein (ligand)
chain: not shown
modifications: FITC-labeled in the flow cytometry assays
notes: domain: Fibronectin type III domains 8-11; also called RGD-containing fibronectin fragment; not shown: glutathione S-transferase (GST) fusion partner

binding result [6]: binds
B5: disintegrin domain of human ADAM15, GST fusion protein (ligand)
chain: not shown
modifications: FITC-labeled in the flow cytometry assays
notes: domain: disintegrin domain; also called ADAM15 disintegrin domain; not shown: glutathione S-transferase (GST) fusion partner

— patent US20180238866A1 (University of California, published 2018)
